This data set deals with the molecule itself. In words: AUC; sedimentation equilibrium; 0.5, 0.17 and 0.06 mg/ml in PBS, 20°C, 18,000 rpm, 24 h; Monomer-Nmer model (HeteroAnalysis); monomer to trimer.

B1: ATF7-pII leucine zipper-TRAIL (ligand, human)
chain: VSSIEKKIEEITSQIIQISNEITLIRNEIAQIKQKGSGQRVAAHITGTRGRSNTLSSPNSKNEKALGRKINSWESSRSGHSFLSNLHLRNGELVIHEKGFYYIYSQTYFRFQEEIKENTKNDKQMVQYIYKYTSYPDPILLMKSARNSCWSKDAEYGLYSIYQGGIFELKENDRIFVSVTNEHLIDMDHEASFFGAFLVG
notes: linker between the leucine zipper and TRAIL; Tumor necrosis factor-Related Apoptosis-Inducing Ligand (TRAIL), human, Gln120-Gly281; No tag is stated; the calculated trimer mass of 69.0 kDa fits zipper + linker + TRAIL 120-281 without a tag; also called ATF7-TRAIL; ATF7 leucine zipper-TRAIL; source: P. pastoris (pGAPZα), secreted, purified (Co2+-metal chelating chromatography, 0 to 25 mM imidazole …)
Usually stoichiometry N stands for the number of molecules, sites or subunits per partner or assembly. Consider B1, for which the “stoichiometry N” value is 3.

The values are drawn from PMC4388654, “A Humanized Leucine Zipper-TRAIL Hybrid Induces Apoptosis of Tumors both In Vitro and In Vivo” (PLoS ONE, 2015).
